Substrate in the data set: CC(=O)[C@@H](O)[C@H](O)COP(=O)(O)O
Kind of data set: Enzymatic activity of yaeM gene product (NADPH decrease, absorbance at 340 nm). In kind it is biochemical, E. coli. The note with it: other: in the presence of MnCl2; pH 7.5; 37.0 °C.

The record followed here is patent US7531333B2, “Process for producing isoprenoid compounds by microorganisms and a method for screening compounds with antibiotic or weeding activity” (Kyowa Hakko Kogyo Co., Ltd., priority 1998, dated 2009).

Method: 0.3 mol/l of 1-deoxy-D-xylulose 5-phosphate (final concentration) synthesized as described above was added to 1 ml of a reaction solution containing 100 mol/l Tris-hydrochloric acid (pH 7.5), 1 mol/l MmCl2, 0.3 mol/l NADPH and yaeM gene product obtained in Example 8 (2) ? , and then incubated at 37° C.
The enzymological characteristics of 1-deoxy-D-xylulose 5-phosphate reductoisomerase were examined using 1 ml of the reaction system as described in Example 8 (2) ? . Here, 1 unit is defined as the activity to oxidize 1 mmol of NADPH per a minute.

B1: 1-deoxy-D-xylulose 5-phosphate reductoisomerase (Escherichia coli K-12) (protein)
chain: MKQLTILGSTGSIGCSTLDVVRHNPEHFRVVALVAGKNVTRMVEQCLEFSPRYAVMDDEASAKLLKTMLQQQGSRTEVLSGQQAACDMAALEDVDQVMAAIVGAAGLLPTLAAIRAGKTILLANKESLVTCGRLFMDAVKQSKAQLLPVDSEHNAIFQSLPQPIQHNLGYADLEQNGVVSILLTGSGGPFRETPLRDLATMTPDQACRHPNWSMGRKISVDSATMMNKGLEYIEARWLFNASASQMEVLIHPQSVIHSMVRYQDGSVLAQLGEPDMVRQLPTPWAWPNRVNSGVKPLDFCKLSALTFAAPDYDRYPCLKLAMEAFEQGQAATTALNAANEITVAAFLAQQIRFTDIAALNLSVLEKMDMREPQCVDDVLSVDANAREVARKEVMRLAS
notes: made in house; host or cells: E. coli M15/pREP4
For B1, the Km (as a rule, the substrate concentration at which the rate is half of its maximum) turned out to be 249 µM.
